Measurements published in publication PMC4831024.

Molecular target: Ku70/Ku80ΔC heterodimer, P12956;P13010
Assay: fluorescence polarisation
Conditions: read at the highest Ku concentration, about 14 µM KuΔC; 100 nM fluorescein-labeled peptide; room temperature; 20 mM HEPES pH 7.5, 200 mM NaCl, 0.5 mM TCEP; parent: est. 190; read off a plot

Q: Which response does the source give for “fluorescein-labelled WRN-nA peptide (N-terminal KBM of WRN) W18A” here?
A: 19 millidegrees
